Substitutions are numbered along the chain they refer to. Names and notes keep the numbering of the source.
B1: wildtype: wild-type MED25 protein (ARC92/ACID1); also as GAL4 fusion, full-length clone (1–754) (protein, UniProt Q71SY5 1-747, looked up)
chain: MVPGSEGPARAGSVVADVVFVIEGTANLGPYFEGLRKHYLLPAIEYFNGGPPAETDFGGDYGGTQYSLVVFNTVDCAPESYVQCHAPTSSAYEFVTWLDGIKFMGGGGESCSLIAEGLSTALQLFDDFKKMREQIGQTHRVCLLICNSPPYLLPAVESTTYSGCTTENLVQQIGERGIHFSIVSPRKLPALRLLFEKAAPPALLEPLQPPTDVSQDPRHMVLVRGLVLPVGGGSAPGPLQSKQPVPLPPAAPSGATLSAAPQQPLPPVPPQYQVPGNLSAAQVAAQNAVEAAKNQKAGLGPRFSPITPLQQAAPGVGPPFSQAPAPQLPPGPPGAPKPPPASQPSLVSTVAPGSGLAPTAQPGAPSMAGTVAPGGVSGPSPAQLGAPALGGQQSVSNKLLAWSGVLEWQEKPKPASVDANTKLTRSLPCQVYVNHGENLKTEQWPQKLIMQLIPQQLLTTLGPLFRNSRMVQFHFTNKDLESLKGLYRIMGNGFAGCVHFPHTAPCEVRVLMLLYSSKKKIFMGLIPYDQSGFVNGIRQVITNHKQVQQQKLEQQQRGMGGQQAPPGLGPILEDQARPSQNLLQLRPPQPQPQGTVGASGATGQPQPQGTAQPPPGAPQGPPGAASGPPPPGPILRPQNPGANPQLRSLLLNPPPPQTGVPPPQASLHHLQPPGAPALLPPPHQGLGQPQLGPPLLHPPPAQSWPAQLPPRAPLPGQMLLSGGPRGPVPQPGLQPSVMEDDILMDLI
modifications: full-length also GAL4 fusion
B2: mutant MED25: MED25 protein carrying the p.A335V mutation; also as GAL4 fusion, full-length clone (1–754) (protein, UniProt Q71SY5 1-747, looked up, variant A335V)
chain: B1 chain with A335V
modifications: full-length also GAL4 fusion

Tested on: Mediator
Assay: Binding to Mediator upon transfection into HeLa cells
Conditions: wild-type vs mutant

Row | Molecule | binding to Mediator
1 | B1 | bound indistinguishably to Mediator
2 | B2 | bound indistinguishably to Mediator

— PMC2847151 (Neurogenetics, 2009)
